Data: a protein production outcome set (Wang et al. 2014)

Experiment: label from the status in PepcDB records

Protein production, failed:
MASILRWFVRAFALALAAQSVCANPRPEVIDTIAATPAGLVAVTEDGTGLWSLVDGSRPAWQARPRAPNARGDMQLEPVAVSPDGRWLAATRGYKDPVIVVRDAATGRAVREIKAPRSGVDGLRFAGDDVLVALYAGRLAAVWEASSGKARGVFELPAAPRQVAASADGRYLAVGQDKQRVTVYDLEGGKSLGNFELGSIASKSHAVPTHDILFMAFAYDGTVVVHHATGYIQRFDPRRAAPAALLGSQDIPLRGVATSLSPDRRVLLTADRPGALTLYRLDQPAPARSALRSALGEVTASAWEAGSRRFAVADNQGRVELWDARKPAGAALEGKHAGAIEQLAFASAGRFLVSSGRDGSIRVRETATGQEAVRLVGLGETGWVSMMPAGYFHSSGLPAEAAINVRIGSDVYGIDNFRERYYRPDILSAALQGRSVRPQRTLADTRPPPQVRADPVPASLAADTYTLVLQLTDQGGGIGDVRVLRNDVAVANHAADAQAAAGSQRRSIPVKLAAGRNEIKVIAFNAENSLSSKPLRLTLDVRATQPEKPVLHAMIVGINEFGEASLNLQYAVNDANAIARELRERTRGLYRDVRIELLTTPQQTSRASLIESLRRYQQLDAGDVFMFYVSTHGAVMGDKPVDQEYFLIPSNAKSPVFAHDAISQHELKRLFSSIPAGKKLLLFDTCFAGALGEALYQPAVERGVAENGAVNVLATAIGSTTLAASAPLEMSYEGYQEHGTFTWVVLQAFRGKAGGGKGNVVLTADLARYVAREVPALARRLQREQNPAVYATGQPFPVVAGR, MASKKKPIDSRVDYSLILPVFFLVLIGLFSVYTATIHDYPSKIMVVMGQQLIWLIMGAAISFVVMLFSTEFLWKITPYLYGLGLILMIFPLIFYSPELVASTGAKNWVSIGSVTLFQPSEFMKISYILILARLTVTFKQKYKEKNLQEDGKLLLWFALLTLPIMILLALQKDLGTAMVFMAILAGLVLIAGISWQIILPVVGAVALIVALFMVVFLIPGGKEFLYHHMGVDTYQINRLSAWLNPFDYAGSIAYQQTQGMISIGSGGLFGKGFNIVELPVPVRESDMIFTVIAENFGFIGGSIVLALYLILIYRMLRVTFASNNLFYTYISTGFIMMILFHIFENIGAAVGILPLTGIPLPFISQGGSSLISNLIGVGLVLSMSYQNSLNQEKATERYFAHIKKESLTS, MASKSVHADITLLLDMEGVIREATLSPTMAAESVDGWLGRRWSDIAGAEGGDKVRRMVEDARRSGISAFRQINQPFPSGVEIPIEFTTMLLGDRTGMIAVGKNMQAVTELHSRLIAAQQAMERDYWRLRELETRYRLVFDAAADAVMIVSAGDMRIVEANRAAVNAISRVERGNDDLAGRDFLAEVAAADRDAVRDMLAQVRQRGTALSVLVHLGRYDRAWMLRGSLMSSERRQVFLLHFTPVTTTPAIDDVDDDAVLRGLIDRIPDGFVALDSEGVVRHANQAFLDLVQIGSKPAAVGRSLGVWMGRPGADLSSLLTLLRRYKTVRLFQTTIRGELGTETEVEVSAVDGEDDQYIGVLMRNVARRLDAADDHDALRQALGPISKQLGRSSLRKLVKNAVSIVEQHYVKEALLRSKGNRTATAELLGLSRQSLYAKLNCYGFDDKGVVASAADGAEGASDDAED, MASLCSARFLPSPSLDILSTKTKISSDSRSLGCSSSRVFAFSSVHRSSSRRNRNQLQVVSMAPEEEKLTRRNPLDFPIEWERPKPGRRPDIFPKFSPMKTPLPPPMPYDPPEEDEEEEEKKEEEEENPDQEEEEQPEKQQ, MASLQLCDGYLLFKPSVSPRFLSQRISHRLIPKASSSPPPSPSPSSSSSSLSFSRRELLYQSAAVSLSLSSIVGPARADEQLSEWERVFLPIDPGVVLLDIAFVPDEPSRGFLLGTRQTLLETKDGGSTWNPRSIPSAEEEDFNYRFNSISFKGKEGWIIGKPAILLYTADAGENWDRIPLSSQLPGDMVFIKATEDKSAEMVTDEGAIYVTSNRGYNWKAAIQETVSATLNRTVSSGISGASYYTGTFSAVNRSPDGRYVAVSSRGNFFLTWEPGQPYWQPHNRAVARRIQNMGWRADGGLWLLVRGGGLYLSKGTGITEEFEEVPVQSRGFGILDVGYRSEEEAWAAGGSGILLRTRNGGKSWNRDKAADNIAANLYAVKFVDDKKGFVLGNDGVLLRYVG
